From patent publication US20250011363A1, “OPTIMIZED SHORTENED PEPTIDE THAT BINDS TO ACETYLCHOLINE RECEPTOR, AND USE THEREOF” (SKINMED CO., LTD., priority 2021, published 2025)

Biological target: acetylcholine receptor
Assay: SPR, AchR immobilised on CM5 chip, peptide 10 uM

Binder | Binding affinity (RU)
RRCCAR [6mer-1-970] | 38 RU
KRKSNK [6mer-1-956] | 34 RU
KKIWFR [6mer-1-959] | 36 RU
RKPAHK [6mer-1-974] | 27 RU
RREEDK [6mer-1-963] | 29 RU
RKFKNK [6mer-1-964] | 42 RU
KRYAGR [6mer-1-958] | 43 RU
RRNSWK [6mer-1-966] | 22 RU
RREDFR [6mer-1-968] | 39 RU
RRDHVK [6mer-1-973] | 25 RU
RKASIK [6mer-1-975] | 22 RU
KKCPFR [6mer-1-960] | 34 RU
RKDHWR [6mer-1-969] | 33 RU
RRTWAR [6mer-1-961] | 122 RU
RKEDKR [6mer-1-950] | 29 RU
RKIEMK [6mer-1-971] | 32 RU
KRHDKK [6mer-1-952] | 28 RU
KKAKGR [6mer-1-954] | 41 RU
RKEMPR [6mer-1-949] | 37 RU
KRIWDK [6mer-1-965] | 36 RU
RKAMDK [6mer-1-951] | 29 RU
RKECFK [6mer-1-955] | 23 RU
KRTNGK [6mer-1-953] | 26 RU
RRHTHK [6mer-1-972] | 43 RU
RRTEDR [6mer-1-967] | 24 RU
KKPPDK [6mer-1-957] | 43 RU
KKNCDK [6mer-1-962] | 42 RU

Now from value to binder:

Binding affinity (RU) | Binder
33 RU | RKICAK [6mer-1-980]
37 RU | KKHEFR [6mer-1-994]
43 RU | RRKSHK [6mer-1-978]
25 RU | RKAHDK [6mer-1-991]
39 RU | RRPPWK [6mer-1-996]
24 RU | RKATNR [6mer-1-999]
33 RU | KRCHHR [6mer-1-995]
24 RU | KRYPDR [6mer-1-988]
42 RU | RRYWEK [6mer-1-979]
41 RU | RKHSHR [6mer-1-1004]
38 RU | KRPHKK [6mer-1-983]
22 RU | KKAEEK [6mer-1-986]
29 RU | KRIHMK [6mer-1-1002]
35 RU | KKPTFR [6mer-1-997]
27 RU | KRATVR [6mer-1-989]
40 RU | RKEMIK [6mer-1-976]
43 RU | RRPCFR [6mer-1-977]
35 RU | KRCPDR [6mer-1-982]
41 RU | KRNPVK [6mer-1-998]
33 RU | KKESDK [6mer-1-984]
22 RU | KRKSER [6mer-1-985]
28 RU | RKMSHR [6mer-1-1000]
27 RU | RKDDKK [6mer-1-981]
26 RU | RKPPDR [6mer-1-1005]
34 RU | RRTEFK [6mer-1-987]
26 RU | KRAHDK [6mer-1-993]
28 RU | RRCTAK [6mer-1-992]
24 RU | RKYCHR [6mer-1-1003]
40 RU | RRFTER [6mer-1-990]
